Among the data in US20150344570A1 (published 2015) are He/Con_2aR, He/Con_2b and He_2aR/2b values, retold here.

The target in assay [1] is T1, FcγRIIa R (human, UniProt P12318 34-217).
T1 construct: extracellular domain; also called FcgRIIa R type; 2aR; not shown: His tag at the C terminus
T1 sequence (looked up): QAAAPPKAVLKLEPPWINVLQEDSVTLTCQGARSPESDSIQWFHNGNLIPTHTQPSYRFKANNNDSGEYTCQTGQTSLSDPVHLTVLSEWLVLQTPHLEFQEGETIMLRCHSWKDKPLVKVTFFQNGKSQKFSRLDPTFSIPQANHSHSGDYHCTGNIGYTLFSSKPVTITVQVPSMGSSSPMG
The experiment in a line: SPR, relative to GpH7-A5/GpH7-B3/GpL16-k0. On the technique in general: SPR reads the build-up and loss of mass on a sensor chip optically.

Another assay addresses T2, FcγRIIb (human, UniProt P31994 43-217).
T2 construct: extracellular domain; also called FcgRIIb; 2b; not shown: His tag at the C terminus
T2 sequence (looked up): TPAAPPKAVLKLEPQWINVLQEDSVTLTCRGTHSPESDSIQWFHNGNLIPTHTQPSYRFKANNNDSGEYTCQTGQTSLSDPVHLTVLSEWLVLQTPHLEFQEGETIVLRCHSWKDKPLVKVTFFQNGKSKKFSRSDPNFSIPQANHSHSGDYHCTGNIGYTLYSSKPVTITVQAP
The assay can be described thus: SPR, relative to GpH7-A5/GpH7-B3/GpL16-k0.

Assay [2] addresses T1, FcγRIIa R. The experiment in a line: SPR; He/Con_2aR divided by He/Con_2b (FcγRIIa R over FcγRIIb).

B1: GpH7-A5/GpH7-B3 variant D270_05P/GpL16-k0 (antibody, human IgG1, kappa)
heavy 1: not shown
heavy 2: not shown
light: DIVMTQSPLSLPVTPGEPASISCQASESLVHSNRNTYLHWYLQKPGQSPQLLIYKVSNRFSGVPDRFSGSGSGTDFTLKISRVEAEDVGVYYCSQNTHVPPTFGQGTKVEIERTVAAPSVFIFPPSDEQLKSGTASVVCLLNNFYPREAKVQWKVDNALQSGNSQESVTEQDSKDSTYSLSSTLTLSKADYEKHKVYACEVTHQGLSSPVTKSFNRGEC
notes: Heterodimerized anti-glypican-3 IgG1; mutation in the GpH7-B3 chain only; also called He Ab
In the case of B1, the He/Con_2aR in the assay with FcγRIIa R [1] was 7.5 control = 100. Further, in the assay with FcγRIIb, the He/Con_2b was determined as 13.9 control = 100. Further, the He_2aR/2b with FcγRIIa R [2] was 0.54 ratio.

B2: GpH7-A5/GpH7-B3 variant A327_12R/GpL16-k0 (antibody, human IgG1, kappa)
heavy 1: not shown
heavy 2: not shown
light: DIVMTQSPLSLPVTPGEPASISCQASESLVHSNRNTYLHWYLQKPGQSPQLLIYKVSNRFSGVPDRFSGSGSGTDFTLKISRVEAEDVGVYYCSQNTHVPPTFGQGTKVEIERTVAAPSVFIFPPSDEQLKSGTASVVCLLNNFYPREAKVQWKVDNALQSGNSQESVTEQDSKDSTYSLSSTLTLSKADYEKHKVYACEVTHQGLSSPVTKSFNRGEC
notes: as for B1
As for B2, the He/Con_2aR in the assay with FcγRIIa R [1] came to 6 control = 100. This molecule came in with a He/Con_2b with FcγRIIb of 9 control = 100. Besides, the He_2aR/2b with FcγRIIa R [2] came out at 0.67 ratio.

B3: GpH7-A5/GpH7-B3 variant K326_09D/GpL16-k0 (antibody, human IgG1, kappa)
heavy 1: not shown
heavy 2: not shown
light: DIVMTQSPLSLPVTPGEPASISCQASESLVHSNRNTYLHWYLQKPGQSPQLLIYKVSNRFSGVPDRFSGSGSGTDFTLKISRVEAEDVGVYYCSQNTHVPPTFGQGTKVEIERTVAAPSVFIFPPSDEQLKSGTASVVCLLNNFYPREAKVQWKVDNALQSGNSQESVTEQDSKDSTYSLSSTLTLSKADYEKHKVYACEVTHQGLSSPVTKSFNRGEC
notes: as for B1
In the assay with FcγRIIa R [1], B3 showed a He/Con_2aR of 148 control = 100. The molecule further came in with a He/Con_2b with FcγRIIb of 193 control = 100. Also, the He_2aR/2b in the assay with FcγRIIa R [2] came to 0.77 ratio.

B4: GpH7-A5/GpH7-B3 variant H268_02A/GpL16-k0 (antibody, human IgG1, kappa)
heavy 1: not shown
heavy 2: not shown
light: DIVMTQSPLSLPVTPGEPASISCQASESLVHSNRNTYLHWYLQKPGQSPQLLIYKVSNRFSGVPDRFSGSGSGTDFTLKISRVEAEDVGVYYCSQNTHVPPTFGQGTKVEIERTVAAPSVFIFPPSDEQLKSGTASVVCLLNNFYPREAKVQWKVDNALQSGNSQESVTEQDSKDSTYSLSSTLTLSKADYEKHKVYACEVTHQGLSSPVTKSFNRGEC
notes: as for B1
Molecule B4 displayed a He/Con_2aR in the assay with FcγRIIa R [1] of 133 control = 100. Also, the He/Con_2b in the assay with FcγRIIb came to 167 control = 100. The same molecule returned a He_2aR/2b with FcγRIIa R [2] of 0.8 ratio.

B5: GpH7-A5/GpH7-B3 variant L328_04F/GpL16-k0 (antibody, human IgG1, kappa)
heavy 1: not shown
heavy 2: not shown
light: DIVMTQSPLSLPVTPGEPASISCQASESLVHSNRNTYLHWYLQKPGQSPQLLIYKVSNRFSGVPDRFSGSGSGTDFTLKISRVEAEDVGVYYCSQNTHVPPTFGQGTKVEIERTVAAPSVFIFPPSDEQLKSGTASVVCLLNNFYPREAKVQWKVDNALQSGNSQESVTEQDSKDSTYSLSSTLTLSKADYEKHKVYACEVTHQGLSSPVTKSFNRGEC
notes: as for B1
B5: the He/Con_2aR in the assay with FcγRIIa R [1] worked out at 138 control = 100. The same molecule registered a He/Con_2b with FcγRIIb of 219 control = 100. For the same molecule, the He_2aR/2b in the assay with FcγRIIa R [2] is 0.63 ratio.

B6: GpH7-A5/GpH7-B3 variant A327_10E/GpL16-k0 (antibody, human IgG1, kappa)
heavy 1: not shown
heavy 2: not shown
light: DIVMTQSPLSLPVTPGEPASISCQASESLVHSNRNTYLHWYLQKPGQSPQLLIYKVSNRFSGVPDRFSGSGSGTDFTLKISRVEAEDVGVYYCSQNTHVPPTFGQGTKVEIERTVAAPSVFIFPPSDEQLKSGTASVVCLLNNFYPREAKVQWKVDNALQSGNSQESVTEQDSKDSTYSLSSTLTLSKADYEKHKVYACEVTHQGLSSPVTKSFNRGEC
notes: as for B1
B6 displayed a He/Con_2aR in the assay with FcγRIIa R [1] of 110 control = 100. The same molecule showed a He/Con_2b with FcγRIIb of 140 control = 100. The He_2aR/2b with FcγRIIa R [2] was 0.78 ratio.

B7: GpH7-A5/GpH7-B3 variant H268_09D/GpL16-k0 (antibody, human IgG1, kappa)
heavy 1: not shown
heavy 2: not shown
light: DIVMTQSPLSLPVTPGEPASISCQASESLVHSNRNTYLHWYLQKPGQSPQLLIYKVSNRFSGVPDRFSGSGSGTDFTLKISRVEAEDVGVYYCSQNTHVPPTFGQGTKVEIERTVAAPSVFIFPPSDEQLKSGTASVVCLLNNFYPREAKVQWKVDNALQSGNSQESVTEQDSKDSTYSLSSTLTLSKADYEKHKVYACEVTHQGLSSPVTKSFNRGEC
notes: as for B1
Molecule B7 returned a He/Con_2aR with FcγRIIa R [1] of 149 control = 100. This molecule also yielded a He/Con_2b in the assay with FcγRIIb of 239 control = 100. In the assay with FcγRIIa R [2], this molecule displayed a He_2aR/2b of 0.62 ratio.

B8: GpH7-A5/GpH7-B3 variant G237_09D/GpL16-k0 (antibody, human IgG1, kappa)
heavy 1: not shown
heavy 2: not shown
light: DIVMTQSPLSLPVTPGEPASISCQASESLVHSNRNTYLHWYLQKPGQSPQLLIYKVSNRFSGVPDRFSGSGSGTDFTLKISRVEAEDVGVYYCSQNTHVPPTFGQGTKVEIERTVAAPSVFIFPPSDEQLKSGTASVVCLLNNFYPREAKVQWKVDNALQSGNSQESVTEQDSKDSTYSLSSTLTLSKADYEKHKVYACEVTHQGLSSPVTKSFNRGEC
notes: as for B1
In the assay with FcγRIIa R [1], B8 returned a He/Con_2aR of 156 control = 100. This molecule came in with a He/Con_2b with FcγRIIb of 223 control = 100. The molecule further gave a He_2aR/2b with FcγRIIa R [2] of 0.7 ratio.

B9: GpH7-A5/GpH7-B3 variant K326_07I/GpL16-k0 (antibody, human IgG1, kappa)
heavy 1: not shown
heavy 2: not shown
light: DIVMTQSPLSLPVTPGEPASISCQASESLVHSNRNTYLHWYLQKPGQSPQLLIYKVSNRFSGVPDRFSGSGSGTDFTLKISRVEAEDVGVYYCSQNTHVPPTFGQGTKVEIERTVAAPSVFIFPPSDEQLKSGTASVVCLLNNFYPREAKVQWKVDNALQSGNSQESVTEQDSKDSTYSLSSTLTLSKADYEKHKVYACEVTHQGLSSPVTKSFNRGEC
notes: as for B1
As to B9, the He/Con_2aR with FcγRIIa R [1] was found to be 147 control = 100. This molecule also displayed a He/Con_2b in the assay with FcγRIIb of 199 control = 100. The molecule also gave a He_2aR/2b in the assay with FcγRIIa R [2] of 0.74 ratio.
